Results reported in paper PMC8297411 (Nature, 2021).
Like-named read-outs stand apart in the source and are kept apart here.

How the values were obtained:
Assay in all cases: cryo-EM structure
[1] = target: VP5* of S567C-A590C VP4 (foot-locked mutant), on recoated TLPs (rhesus rotavirus (RRV, G3 serotype))
[2] = target: VP6 of rhesus rotavirus, in DLPs and TLPs (rhesus rotavirus (RRV, G3 serotype))
[3] = target: VP6 of rhesus rotavirus, in DLPs and TLPs (rhesus rotavirus (RRV, G3 serotype)); remark: listed apart in the source
[4] = target: VP6 of rhesus rotavirus, in DLPs and TLPs (rhesus rotavirus (RRV, G3 serotype)); remark: listed apart in the source
cryo-EM structure [5] = target: the molecule itself
VP5* on native RRV TLPs = VP5* on native RRV TLPs (rhesus rotavirus (RRV, G3 serotype), UniProt P12473 248-776)
cryo-EM structure [6] = target: the molecule itself; remark: listed apart in the source

In the case of “VP5* of S567C-A590C VP4 (foot-locked mutant), on recoated TLPs (domain or fragment)”, the stoichiometry N [1] is reported as 3.

With “VP6 of rhesus rotavirus, in DLPs and TLPs (natural protein)” the stoichiometry N [2] was 3, the stoichiometry N [3] was 3 and the stoichiometry N [4] was 3.

B1: VP7 of rhesus rotavirus, recombinant, wild type (natural protein, rhesus rotavirus (RRV, G3 serotype), UniProt P12476 51-326, looked up)
chain: QNYGINLPITGSMDTAYANSTQEETFLTSTLCLYYPTEAATEINDNSWKDTLSQLFLTKGWPTGSVYFKEYTDIASFSVDPQLYCDYNVVLMKYDATLQLDMSELADLILNEWLCNPMDITLYYYQQTDEANKWISMGSSCTIKVCPLNTQTLGIGCLTTDTATFEEVATAEKLVITDVVDGVNHKLDVTTATCTIRNCKKLGPRENVAVIQVGGSDVLDITADPTTAPQTERMMRINWKKWWQVFYTVVDYVNQIIQAMSKRSRSLNSAAFYYRI
With B1 the “stoichiometry N” value (cryo-EM structure [5]) was 3.

B2: VP7 on native RRV TLPs (natural protein, rhesus rotavirus (RRV, G3 serotype), UniProt P12476 51-326, looked up)
chain: QNYGINLPITGSMDTAYANSTQEETFLTSTLCLYYPTEAATEINDNSWKDTLSQLFLTKGWPTGSVYFKEYTDIASFSVDPQLYCDYNVVLMKYDATLQLDMSELADLILNEWLCNPMDITLYYYQQTDEANKWISMGSSCTIKVCPLNTQTLGIGCLTTDTATFEEVATAEKLVITDVVDGVNHKLDVTTATCTIRNCKKLGPRENVAVIQVGGSDVLDITADPTTAPQTERMMRINWKKWWQVFYTVVDYVNQIIQAMSKRSRSLNSAAFYYRI
B2: binds (VP5* on native RRV TLPs).

B3: VP5* (C-terminal trypsin cleavage fragment of rhesus rotavirus VP4), wild type, on recoated TLPs (domain or fragment, rhesus rotavirus (RRV, G3 serotype), UniProt P12473 248-776, looked up)
chain: AQANEDIVVSKTSLWKEMQYNRDITIRFKFASSIVKSGGLGYKWSEISFKPANYQYTYTRDGEDVTAHTTCSVNGMNDFNFNGGSLPTDFIISRYEVIKENSYVYVDYWDDSQAFRNMVYVRSLAANLNSVICTGGDYSFALPVGQWPVMTGGAVSLHSAGVTLSTQFTDFVSFNSLRFRFRLTVEEPSFSITRTRVGGLYGLPAAYPNNGKEYYEVAGRLSLISLVPSNDDYQTPITNSVTVRQDLERQLGELREEFNALSQEIAMSQLIYLALLPLDMFSMFSGIKSTIDAAKSMATSVMKKFKKSGLANSVSTLTDSLSDAASSISRGASIRSVGSSASAWTDVSTQITDVSSSVSSISTQTSTISRRLRLKEMATQTEGMNFDDISAAVLKTKIDRSTQISPNTLPDIVTEASEKFIPNRAYRVINNDEVFEAGTDGRYFAYRVETFDEIPFDVQKFADLVTDSPVISAIIDFKTLKNLNDNYGISRQQAFNLLRSDPRVLREFINQDNPIIRNRIEQLIMQCRL
For B3, the “stoichiometry N” value (cryo-EM structure [6]) was 3.
